The record followed here is patent US20260250420A1 (SICHUAN KELUN BIOTECH BIOPHARMACEUTICAL, published 2026).

Experiment [1] concerns the target T1, rat PTK7 protein (extracellular sequence of rat PTK7 with C-terminal 6×His tag) (rat, UniProt A0A8I6ALM9 40-713).
T1 construct: extracellular domain; Expressed transiently in HEK293 cells
Put plainly: ELISA, coated rat PTK7 protein. A general note: An ELISA detects its analyte on a solid surface through an enzyme-linked reagent.

Experiment [2] deals with T2, human PTK7 on cells (tumor cells endogenously expressing PTK7); CHO-hPTK7, CHO-S-hPTK7 and 293T-hPTK7 … (human, UniProt Q13308 31-1070).
T2 construct: whole, on cells; The cell line of each value is named under assay; also called H1299; H358
T2 sequence (looked up): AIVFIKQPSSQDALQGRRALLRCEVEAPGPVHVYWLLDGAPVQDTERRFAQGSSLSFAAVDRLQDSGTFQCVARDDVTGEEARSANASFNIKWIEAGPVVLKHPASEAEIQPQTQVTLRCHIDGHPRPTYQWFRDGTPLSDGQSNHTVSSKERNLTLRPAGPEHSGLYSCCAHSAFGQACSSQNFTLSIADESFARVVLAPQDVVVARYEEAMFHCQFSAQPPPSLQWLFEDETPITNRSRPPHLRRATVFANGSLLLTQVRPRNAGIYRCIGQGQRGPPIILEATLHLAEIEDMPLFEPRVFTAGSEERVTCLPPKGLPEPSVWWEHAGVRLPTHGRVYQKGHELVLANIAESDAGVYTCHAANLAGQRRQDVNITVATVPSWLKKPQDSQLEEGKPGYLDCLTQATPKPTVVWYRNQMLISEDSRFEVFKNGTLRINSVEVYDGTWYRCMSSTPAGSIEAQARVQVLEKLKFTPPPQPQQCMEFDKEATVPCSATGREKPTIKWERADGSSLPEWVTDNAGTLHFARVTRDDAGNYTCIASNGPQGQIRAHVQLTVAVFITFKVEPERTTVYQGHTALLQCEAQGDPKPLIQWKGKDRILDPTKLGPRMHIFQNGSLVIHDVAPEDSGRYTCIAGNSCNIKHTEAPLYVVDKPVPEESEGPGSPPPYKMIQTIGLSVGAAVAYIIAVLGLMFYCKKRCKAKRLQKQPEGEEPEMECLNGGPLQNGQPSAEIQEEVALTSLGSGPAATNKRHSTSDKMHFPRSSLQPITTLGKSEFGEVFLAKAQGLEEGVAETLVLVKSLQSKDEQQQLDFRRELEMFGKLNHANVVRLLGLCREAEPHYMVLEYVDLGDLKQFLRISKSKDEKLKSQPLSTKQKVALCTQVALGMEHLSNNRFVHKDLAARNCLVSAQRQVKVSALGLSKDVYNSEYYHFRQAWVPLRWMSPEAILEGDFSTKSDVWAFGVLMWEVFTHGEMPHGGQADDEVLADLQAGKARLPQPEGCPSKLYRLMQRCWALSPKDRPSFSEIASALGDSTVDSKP
Briefly: flow cytometry on CHO-hPTK7 overexpression cells. An excerpt: (§1) A flow cytometer (Beckman, Cytoflex) was used for detecting the affinity of the anti-human PTK7 chimeric and humanized antibodies with human non-small cell lung cancer cells H1299, human lung adenocarcinoma cells H1975, human breast cancer cells T47D, human ovarian cancer cells OVCAR-3 (all purchased from NANJING COBIOER BIOSCIENCES CO., LTD) and CHO-hPTK7 overexpression cells.
(§2) The adherent cells were digested by using a pancreatin (Gibco) solution; a proper amount of cells were counted and taken, washed twice by using 1×PBS, and re-suspended in a 1% BSA solution; and then the cells were transferred into a 96-well deep plate at a density of 50 μl/well; a candidate antibody was diluted by using 1% BSA, then 50 μl of diluted antibody was added into the deep plate containing the cells, and incubated for 40 min at 4° C.; the cells were washed twice by using PBS, then 50 μl of diluted secondary antibody was added into each well, uniformly mixed, and incubated for 30 min at 4° C.; and the cells were washed twice by using PBS, then re-suspended in 400 μl of PBS, and subjected to examination by flow cytometer.

Experiment [3] has as its target T2, human PTK7 on cells (tumor cells …). Put plainly: flow cytometry on OVCAR-3 cells.
Source text: as §1, §2

For experiment [4] the target is unchanged. Briefly: flow cytometry on H1299 cells endogenously expressing PTK7. In general terms: A flow cytometer gives signals particle by particle.
Experiment [5] concerns the target T3, monkey PTK7 protein (extracellular sequence of monkey PTK7 with C-terminal 6×His tag) (monkey).
T3 chain: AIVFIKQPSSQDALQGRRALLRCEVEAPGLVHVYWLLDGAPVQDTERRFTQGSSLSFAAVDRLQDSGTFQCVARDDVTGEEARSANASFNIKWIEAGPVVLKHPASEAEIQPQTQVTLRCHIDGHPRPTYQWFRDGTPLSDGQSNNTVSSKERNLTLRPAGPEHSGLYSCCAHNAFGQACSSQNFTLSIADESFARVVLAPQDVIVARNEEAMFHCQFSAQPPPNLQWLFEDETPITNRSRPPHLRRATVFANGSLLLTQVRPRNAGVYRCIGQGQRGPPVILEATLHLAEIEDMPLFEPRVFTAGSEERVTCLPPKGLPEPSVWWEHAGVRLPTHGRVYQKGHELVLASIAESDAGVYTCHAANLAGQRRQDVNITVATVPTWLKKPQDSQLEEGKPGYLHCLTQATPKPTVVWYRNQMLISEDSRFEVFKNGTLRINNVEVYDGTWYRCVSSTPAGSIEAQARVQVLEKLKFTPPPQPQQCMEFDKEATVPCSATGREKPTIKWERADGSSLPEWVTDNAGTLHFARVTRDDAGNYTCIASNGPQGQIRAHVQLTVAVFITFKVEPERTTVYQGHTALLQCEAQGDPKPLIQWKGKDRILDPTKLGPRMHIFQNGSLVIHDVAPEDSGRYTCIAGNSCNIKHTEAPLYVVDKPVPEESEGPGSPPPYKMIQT
Put plainly: ELISA, coated monkey PTK7 protein 1 µg/ml. The protocol:
Original data was imported into software for nonlinear curve fitting, and EC₅₀ of binding of each antibody to human PTK7 and monkey PTK7 was calculated, respectively. As shown in Table 1 and FIGS. 1A-1B, the screened antibodies could be bound to the human and monkey PTK7 proteins with affinity higher than that of the control antibody Hu24.

The target in experiment [6] is T2, human PTK7 on cells (tumor cells …). Briefly: cell-based or functional assay.

B1: 101A6HZ (anti-human PTK7 humanized antibody) (antibody, human IgG1, kappa)
heavy: not shown
light: DIVMTQSPDSLAVSLGERATINCKASQDVGSAVIWYQQKPGQSPKLLIYWASTRHTGVPDRFSGSGSGTDFTLTISSLQAEDVAVYYCQQYSSYPLTFGQGTKLEIKRTVAAPSVFIFPPSDEQLKSGTASVVCLLNNFYPREAKVQWKVDNALQSGNSQESVTEQDSKDSTYSLSSTLTLSKADYEKHKVYACEVTHQGLSSPVTKSFNRGEC
Regarding B1, in experiment [1], the binding result is reported as “no binding”. Moreover, the half-maximal effective concentration (EC50) in experiment [2] was determined as 0.176 µg/mL.

B2: 64A10HZ (anti-human PTK7 humanized antibody) (antibody, human IgG1, kappa, V domains shown)
VH: QVQLQESGPGLVKPSETLSLTCTVSGFSLTSYGVYWVRQPPGKGPEWLGVIWTSGNTNYNPSLKSRLTISKDNSKNQVSLKLSSVTAADTAVYYCVKHDGGNYVGVMNYWGQGTLVTVSS
VL: EIVMTQSPDFQSVTPKEKVTITCRASQSISDYLHWYQQKPDQSPKLLIKYASQSISGVPSRFSGSGSGSDFTLTINSLEAEDAATYYCQNGHSFPPTFGQGTKLEIKR
notes: Human IgG1 heavy chain constant region and human Kappa light chain constant region; expressed in CHO-S cells
Regarding B2, the binding result in experiment [1] is recorded as “no binding”. Moreover, in experiment [3], the response was half-maximal at 0.0613 µg/mL (EC50).

B3: Hu24 (PTK7 control antibody, taken from Hu24 in the Patent CN201580030255) (antibody)
chain 1: QVQLVQSGPEVKKPGASVKVSCKASGYTFTDYAVHWVRQAPGKRLEWIGVISTYNDYTYNNQDFKGRVTMTRDTSASTAYMELSRLRSEDTAVYYCARGNSYFYALDYWGQGTSVTVSS
chain 2: EIVLTQSPATLSLSPGERATLSCRASESVDSYGKSFMHWYQQKPGQAPRLLIYRASNLESGIPARFSGSGSGTDFTLTISSLEPEDFAVYYCQQSNEDPWTFGGGTKLEIK
As for B3, the EC50 in experiment [4] was found to be 0.293 µg/mL. In addition, in experiment [5], it took 0.0133 µg/mL to reach a half-maximal effect (EC50). In addition, the EC50 in experiment [3] was 0.123 µg/mL. Further, in experiment [2], a half-maximal response (EC50) required 0.308 µg/mL. Also, in experiment [6], the “Cell endocytosis, EC50, A431 cells” value turned out to be 0.0743 µg/mL; the “Cell endocytosis, EC50, HCC1806 cells” value is 0.0659 µg/mL; the “Cell endocytosis, EC50, NCI-H358 cells” value was found to be 0.0708 µg/mL; the “Cell endocytosis, EC50, OVCAR3 cells” value was determined as 0.101 µg/mL.

What is called EC50 is the concentration at which the effect is half-maximal.
